B1: LINE1-mini (parent)
chain: GGCAGAGCUCAACACAGCGUGGCAAAGUGGCUGUGGCUAGACUGCC

Variants of: B1
Assay: self-cleavage, relative activity (ratio to wild type); higher = more cleavage; in vitro, sequencing; the parent is a self-cleaving ribozyme
Work on GGCAGAGCUCAACACAGCGUGGCAAAGUGGCUGUGGCUAGUCUGUC [A41U C45U] yielded a self-cleavage of 0.55.
For GGCAGAGCUCAACACAGCGUGGCAAAGUGGCUGUGGCUAGUCUGAC [A41U C45A], the self-cleavage was 0.19.
Work on GGCAGAGCUCAACACAGCGUGGCAAAGUGGCUGUGGCUAGUCUGGC [A41U C45G] yielded a self-cleavage of 0.23.
Variant GGCAGAGCUCAACACAGCGUGGCAAAGUGGCUGUGGCUAUACUGAC [G40U C45A] has a self-cleavage of 0.09.
Work on GGCAGAGCUCAACACAGCGUGGCAAAGUGGCUGUGGCUAUACUGGC [G40U C45G] yielded a self-cleavage of 0.14.
GGCAGAGCUCAACACAGCGUGGCAAAGUGGCUGUGGCUAUACUGUC [G40U C45U] showed a self-cleavage of 0.15.
Work on GGCAGAGCUCAACACAGCGUGGCAAAGUGGCUGUGGCUAAACUGAC [G40A C45A] yielded a self-cleavage of 0.12.
For GGCAGAGCUCAACACAGCGUGGCAAAGUGGCUGUGGCUAAACUGGC [G40A C45G], the self-cleavage was 0.13.
Work on GGCAGAGCUCAACACAGCGUGGCAAAGUGGCUGUGGCUAAACUGUC [G40A C45U] yielded a self-cleavage of 0.16.
For GGCAGAGCUCAACACAGCGUGGCAAAGUGGCUGUGGCUUGACUGUC [A39U C45U], the self-cleavage was 0.85.
GGCAGAGCUCAACACAGCGUGGCAAAGUGGCUGUGGCUAAACUGCA [G40A C46A] showed a self-cleavage of 0.14.
GGCAGAGCUCAACACAGCGUGGCAAAGUGGCUGUGGCUAAACUGCG [G40A C46G] showed a self-cleavage of 0.11.
Variant GGCAGAGCUCAACACAGCGUGGCAAAGUGGCUGUGGCUAAACUGCU [G40A C46U] has a self-cleavage of 0.14.
GGCAGAGCUCAACACAGCGUGGCAAAGUGGCUGUGGCUAGGCAGCC [A41G U43A] gave a self-cleavage of 0.05.
GGCAGAGCUCAACACAGCGUGGCAAAGUGGCUGUGGCUAGGCCGCC [A41G U43C] showed a self-cleavage of 0.04.
With GGCAGAGCUCAACACAGCGUGGCAAAGUGGCUGUGGCUAGGCGGCC [A41G U43G] the self-cleavage was 0.05.
With GGCAGAGCUCAACACAGCGUGGCAAAGUGGCUGUGGCUAUACUACC [G40U G44A] the self-cleavage was 0.14.
Work on GGCAGAGCUCAACACAGCGUGGCAAAGUGGCUGUGGCUAUACUUCC [G40U G44U] yielded a self-cleavage of 0.12.
With GGCAGAGCUCAACACAGCGUGGCAAAGUGGCUGUGGCUAUACUCCC [G40U G44C] the self-cleavage was 0.16.
Work on GGCAGAGCUCAACACAGCGUGGCAAAGUGGCUGUGGCUAUCCUGCC [G40U A41C] yielded a self-cleavage of 0.2.
Work on GGCAGAGCUCAACACAGCGUGGCAAAGUGGCUGUGGCUAUUCUGCC [G40U A41U] yielded a self-cleavage of 0.37.
Work on GGCAGAGCUCAACACAGCGUGGCAAAGUGGCUGUGGCUAUGCUGCC [G40U A41G] yielded a self-cleavage of 0.09.
In the case of GGCAGAGCUCAACACAGCGUGGCAAAGUGGCUGUGGCUAGGCUGCU [A41G C46U], the self-cleavage is reported as 0.16.
In the case of GGCAGAGCUCAACACAGCGUGGCAAAGUGGCUGUGGCUAGGCUGCG [A41G C46G], the self-cleavage is reported as 0.08.
Work on GGCAGAGCUCAACACAGCGUGGCAAAGUGGCUGUGGCUAGGCUGCA [A41G C46A] yielded a self-cleavage of 0.22.
For GGCAGAGCUCAACACAGCGUGGCAAAGUGGCUGUGGCUAGGCUGUC [A41G C45U], the self-cleavage was 0.49.
GGCAGAGCUCAACACAGCGUGGCAAAGUGGCUGUGGCUAGGCUGGC [A41G C45G] showed a self-cleavage of 0.05.
Variant GGCAGAGCUCAACACAGCGUGGCAAAGUGGCUGUGGCUAGGCUGAC [A41G C45A] has a self-cleavage of 0.09.
GGCAGAGCUCAACACAGCGUGGCAAAGUGGCUGUGGCUAGGCUGCC [A41G] showed a self-cleavage of 0.34.
In the case of GGCAGAGCUCAACACAGCGUGGCAAAGUGGCUGUGGCUAGCCUGCC [A41C], the self-cleavage is reported as 0.06.
With GGCAGAGCUCAACACAGCGUGGCAAAGUGGCUGUGGCUAGUCUGCC [A41U] the self-cleavage was 0.67.
GGCAGAGCUCAACACAGCGUGGCAAAGUGGCUGUGGCUACACUGCU [G40C C46U] gave a self-cleavage of 0.08.
For GGCAGAGCUCAACACAGCGUGGCAAAGUGGCUGUGGCUACACUGCA [G40C C46A], the self-cleavage was 0.1.
For GGCAGAGCUCAACACAGCGUGGCAAAGUGGCUGUGGCUACACUGCG [G40C C46G], the self-cleavage was 0.08.
Work on GGCAGAGCUCAACACAGCGUGGCAAAGUGGCUGUGGCUAGCCGGCC [A41C U43G] yielded a self-cleavage of 0.06.
With GGCAGAGCUCAACACAGCGUGGCAAAGUGGCUGUGGCUAGCCCGCC [A41C U43C] the self-cleavage was 0.08.
Work on GGCAGAGCUCAACACAGCGUGGCAAAGUGGCUGUGGCUAGCCAGCC [A41C U43A] yielded a self-cleavage of 0.11.
GGCAGAGCUCAACACAGCGUGGCAAAGUGGCUGUGGCUAUACUGCC [G40U] gave a self-cleavage of 0.15.
GGCAGAGCUCAACACAGCGUGGCAAAGUGGCUGUGGCUACACUGCC [G40C] showed a self-cleavage of 0.09.
GGCAGAGCUCAACACAGCGUGGCAAAGUGGCUGUGGCUAAACUGCC [G40A] showed a self-cleavage of 0.14.
In the case of GGCAGAGCUCAACACAGCGUGGCAAAGUGGCUGUGGCUAAACAGCC [G40A U43A], the self-cleavage is reported as 0.06.
GGCAGAGCUCAACACAGCGUGGCAAAGUGGCUGUGGCUAAACGGCC [G40A U43G] gave a self-cleavage of 0.09.
In the case of GGCAGAGCUCAACACAGCGUGGCAAAGUGGCUGUGGCUAAACCGCC [G40A U43C], the self-cleavage is reported as 0.08.
Variant GGCAGAGCUCAACACAGCGUGGCAAAGUGGCUGUGGCUUCACUGCC [A39U G40C] has a self-cleavage of 0.18.
Variant GGCAGAGCUCAACACAGCGUGGCAAAGUGGCUGUGGCUUAACUGCC [A39U G40A] has a self-cleavage of 0.17.
Work on GGCAGAGCUCAACACAGCGUGGCAAAGUGGCUGUGGCUUUACUGCC [A39U G40U] yielded a self-cleavage of 0.14.
For GGCAGAGCUCAACACAGCGUGGCAAAGUGGCUGUGGCUAGCCUGGC [A41C C45G], the self-cleavage was 0.1.
Work on GGCAGAGCUCAACACAGCGUGGCAAAGUGGCUGUGGCUAGCCUGUC [A41C C45U] yielded a self-cleavage of 0.1.
In the case of GGCAGAGCUCAACACAGCGUGGCAAAGUGGCUGUGGCUAGCCUGAC [A41C C45A], the self-cleavage is reported as 0.11.
GGCAGAGCUCAACACAGCGUGGCAAAGUGGCUGUGGCUAUAUUGCC [G40U C42U] showed a self-cleavage of 0.07.
For GGCAGAGCUCAACACAGCGUGGCAAAGUGGCUGUGGCUAUAAUGCC [G40U C42A], the self-cleavage was 0.09.
For GGCAGAGCUCAACACAGCGUGGCAAAGUGGCUGUGGCUAUAGUGCC [G40U C42G], the self-cleavage was 0.08.
With GGCAGAGCUCAACACAGCGUGGCAAAGUGGCUGUGGCUAAAUUGCC [G40A C42U] the self-cleavage was 0.09.
Work on GGCAGAGCUCAACACAGCGUGGCAAAGUGGCUGUGGCUAAAGUGCC [G40A C42G] yielded a self-cleavage of 0.09.
Work on GGCAGAGCUCAACACAGCGUGGCAAAGUGGCUGUGGCUAAAAUGCC [G40A C42A] yielded a self-cleavage of 0.1.
With GGCAGAGCUCAACACAGCGUGGCAAAGUGGCUGUGGCUAGUGUGCC [A41U C42G] the self-cleavage was 0.07.

— the RNAGym collection of RNA variant scans (doi:10.7554/elife.90254)
